Reference: patent US20110274702A1

Columns and labels:
[1] = target: H7N7 A/Netherlands/219/03 HA protein (influenza A virus H7N7 A/Netherlands/219/03); assay: ELISA on coated HA
[2] = target: H7N7 A/Netherlands/219/03 HA protein (influenza A virus H7N7 A/Netherlands/219/03); assay: ELISA on HA

Binder	EC50 [1]	Binding to HA by ELISA (% of subtype specific control antibodies) [2]
FI6 variant 2 (antibody, V domains shown) VH: QVQLVQSGGGVVQPGRSLRLSCVASGFTFSTYAMHWVRQAPGRGLEWVAVISYDGNYKYYADSVKGRFSISRDNSNNTLHLEMNTLRTEDTALYYCAKDSQLRSLLYFEWLSQGYFDPWGQGTLVTVTS VL: DIQMTQSPDSLAVSLGARATINCKSSQSVTFNYKNYLAWYQQKPGQPPKVLIYWASARESGVPDRFSGSGSGTDFTLTISSLQAEDVAVYYCQQHYRTPPTFGQGTKVEIK	0.026 µg/mL	87.9%
FI28 variant 1 (antibody, V domains shown) VH: EVQLVESGGGAVQPGESLKLSCAASGFTFSNYGMHWVRQAPGKGLEWVAVISYDGSNKYYADSVKGRFTISRDNSKDTLYLQMNSLRAEDTALFYCAKERPLRLLRYFDWLSGGANDYWGQGTLVTVSS VL: DIVMTQSPDSLAVSLGERATINCKSSQSVLYSSNNKNYLAWYQQKPGQPPKLLIDWASTRESGVPDRFSGSGSGTDFTLTISNLQVEDVAVYYCQQYYRSPSFGQGTKLEIK		-0.5%
